Test results published in paper PMC9461283 (Biosafety and Health, 2022).

Key:
[1] = molecular target: SARS-CoV-2 S receptor-binding domain (RBD) (SARS-CoV-2 (isolate Wuhan-Hu-1), UniProt P0DTC2); experiment: SPR
[2] = molecular target: SARS-CoV-2 S receptor-binding domain (RBD) (SARS-CoV-2 (isolate Wuhan-Hu-1), UniProt P0DTC2); experiment: SPR; remark: listed apart in the source

B1: human ACE2 ectodomain (ectoACE2), N-terminal 367 aa (domain or fragment)
chain: QSTIEEQAKTFLDKFNHEAEDLFYQSSLASWNYNTNITEENVQNMNNAGDKWSAFLKEQSTLAQMYPLQEIQNLTVKLQLQALQQNGSSVLSEDKSKRLNTILNTMSTIYSTGKVCNPDNPQECLLLEPGLNEIMANSLDYNERLWAWESWRSEVGKQLRPLYEEYVVLKNEMARANHYEDYGDYWRGDYEVNGVDGYDYSRGQLIEDVEHTFEEIKPLYEHLHAYVRAKLMNAYPSYISPIGCLPAHLLGDMWGRFWTNLYSLTVPFGQKPNIDVTDAMVDQAWDAQRIFKEAEKFFVSVGLPNMTQGFWENSMLTDPGNVQKAVCHPTAWDLGKGDFRILMCTKVTMD
B1 gave a Kd [1] of 61.2 nM.

B2: African Green monkey (Chlorocebus sabaeus) ACE2 ectodomain (ectoACE2), N-terminal 367 aa (domain or fragment)
chain: QSTIEEQAKTFLDKFNPEAEDLFYQSSLASWNYNTNITEENVQNMNNAGEKWSAFLKEQSTLAQMYPLQAIQNLTVKLQLQALQQNGSSVLSEDKSKRLNTILNTMSTIYSTGKVCNPNNPQECLLLDPGLNEIMEKSLDYNERLWAWEGWRSEVGKQLRPLYEEYVVLKNEMARANHYKDYGDYWRGDYEVNGVDGYDYNRDQLIEDVERTFEEIKPLYEHLHAYVRAKLMNAYPSYISPTGCLPAHLLGDMWGRFWTNLYSLTVPFGQKPNIDVTDAMVNQAWNAQRIFKEAEKFFVSVGLPNMTQGFWENSMLTDPGNVQKVVCHPTAWDLGKGDFRIIMCTKVTMD
Work on B2 yielded a Kd [2] of 67.6 nM.
